In publication PMC9482650, “Quantitative fragmentomics allow affinity mapping of interactomes” (Nature Communications, 2022):

What was measured:
Test in all cases: holdup assay
Design in all cases: key: below the threshold = too weak to quantify, mostly under pKd 3.1 to 4
[1] = molecular target: IL16_4, Q14005
[2] = molecular target: Inadl_4, Q8NI35
[3] = molecular target: DLG2_3, Q15700
[4] = molecular target: PDLIM1, O00151
[5] = molecular target: MAGI1_1, Q96QZ7
[6] = molecular target: GOPC, Q9HD26
[7] = molecular target: T1, PDZRN3_1, Q9UPQ7
T1 sequence (Q9UPQ7 244-349, limits assumed, looked up): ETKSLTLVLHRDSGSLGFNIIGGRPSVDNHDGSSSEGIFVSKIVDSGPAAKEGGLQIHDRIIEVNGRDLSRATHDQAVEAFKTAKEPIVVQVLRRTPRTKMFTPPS

[8] = molecular target: T2, LNX2_2, Q8N448
T2 sequence (Q8N448 334-432, limits assumed, looked up): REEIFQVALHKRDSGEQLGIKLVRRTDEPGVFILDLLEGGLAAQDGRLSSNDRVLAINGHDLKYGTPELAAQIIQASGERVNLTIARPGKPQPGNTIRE

[9] = molecular target: LAP2, Q96RT1
[10] = molecular target: LDB3, O75112
[11] = molecular target: FRMPD4, Q14CM0
[12] = molecular target: DLG4_3, P78352
[13] = molecular target: T3, LIN7C, Q9NUP9
T3 sequence (Q9NUP9 88-185, limits assumed, looked up): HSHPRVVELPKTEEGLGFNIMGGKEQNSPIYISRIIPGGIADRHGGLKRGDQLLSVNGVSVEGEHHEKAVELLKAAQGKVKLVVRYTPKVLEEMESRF

[14] = molecular target: HTRA1, Q92743
[15] = molecular target: IL16_3, Q14005
[16] = molecular target: MAGI2_2, Q86UL8
[17] = molecular target: DLG4_1, P78352
[18] = molecular target: LNX1_1, Q8TBB1
[19] = molecular target: GRIP2_4, Q9C0E4
[20] = molecular target: T4, APBA2_2, Q99767
T4 sequence (Q99767 654-744, limits assumed, looked up): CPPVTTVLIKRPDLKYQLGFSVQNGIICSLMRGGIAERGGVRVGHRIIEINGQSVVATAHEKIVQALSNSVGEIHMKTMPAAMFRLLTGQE

[21] = molecular target: MAGI2_3, Q86UL8
[22] = molecular target: DLG1_2, Q12959
[23] = molecular target: T5, ARHGAP21, Q5T5U3
T5 sequence (Q5T5U3 45-169, limits assumed, looked up): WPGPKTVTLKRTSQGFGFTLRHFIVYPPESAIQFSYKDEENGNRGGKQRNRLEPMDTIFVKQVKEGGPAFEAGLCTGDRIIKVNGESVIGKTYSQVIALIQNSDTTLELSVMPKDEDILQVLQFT

[24] = molecular target: Inadl_5, Q8NI35
[25] = molecular target: T6, HTRA4, P83105
T6 sequence (P83105 378-476, limits assumed, looked up): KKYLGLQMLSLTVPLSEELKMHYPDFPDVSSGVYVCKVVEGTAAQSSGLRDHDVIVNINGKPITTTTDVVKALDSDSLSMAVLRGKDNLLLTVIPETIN

[26] = molecular target: MAGI2_5, Q86UL8
[27] = molecular target: TJP1_2, Q07157
[28] = molecular target: GRASP, Q7Z6J2
[29] = molecular target: GORASP1, Q9BQQ3
[30] = molecular target: DLG4_2, P78352
[31] = molecular target: GRIP2_7, Q9C0E4
[32] = molecular target: Inadl_8, Q8NI35
[33] = molecular target: FRMPD3, Q5JV73
[34] = plain residues with an end cap or a label only (N-terminal biotin on a linker: ado-ado)
[35] = modified: phospho on S at position -3 from the C-terminal residue
[36] = modified: acetyl on K at position -1 from the C-terminal residue

FRMPD3, Q5JV73, sequence (Q5JV73 12-100): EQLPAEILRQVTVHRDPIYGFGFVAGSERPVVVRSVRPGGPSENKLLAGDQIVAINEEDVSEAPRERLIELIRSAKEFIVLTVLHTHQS
GORASP1, Q9BQQ3, sequence (Q9BQQ3 1-208): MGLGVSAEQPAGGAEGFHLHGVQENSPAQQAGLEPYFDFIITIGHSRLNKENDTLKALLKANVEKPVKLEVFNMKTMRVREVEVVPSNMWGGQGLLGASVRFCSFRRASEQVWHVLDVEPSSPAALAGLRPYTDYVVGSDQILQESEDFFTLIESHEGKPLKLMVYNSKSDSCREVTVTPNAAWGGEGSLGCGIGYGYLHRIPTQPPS
LNX1_1, Q8TBB1, sequence (Q8TBB1 261-371): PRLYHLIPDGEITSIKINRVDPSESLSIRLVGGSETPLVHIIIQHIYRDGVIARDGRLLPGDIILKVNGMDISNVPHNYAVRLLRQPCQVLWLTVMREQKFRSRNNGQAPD
MAGI2_5, Q86UL8, sequence (Q86UL8 915-1017): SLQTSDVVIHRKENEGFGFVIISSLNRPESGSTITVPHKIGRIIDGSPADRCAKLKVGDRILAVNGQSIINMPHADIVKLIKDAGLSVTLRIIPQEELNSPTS
FRMPD4, Q14CM0, sequence (Q14CM0 67-160): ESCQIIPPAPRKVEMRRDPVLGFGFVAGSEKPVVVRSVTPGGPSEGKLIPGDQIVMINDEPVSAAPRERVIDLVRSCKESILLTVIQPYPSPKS
Inadl_5, Q8NI35, sequence (Q8NI35 673-780): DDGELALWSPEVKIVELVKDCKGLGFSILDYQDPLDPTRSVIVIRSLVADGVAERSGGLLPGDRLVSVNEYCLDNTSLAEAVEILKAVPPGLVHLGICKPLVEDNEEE
GRIP2_4, Q9C0E4, sequence (Q9C0E4 446-548): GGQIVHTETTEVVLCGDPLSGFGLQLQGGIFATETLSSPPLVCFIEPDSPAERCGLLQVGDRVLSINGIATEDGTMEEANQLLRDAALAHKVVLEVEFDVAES
Inadl_8, Q8NI35, sequence (Q8NI35 1425-1530): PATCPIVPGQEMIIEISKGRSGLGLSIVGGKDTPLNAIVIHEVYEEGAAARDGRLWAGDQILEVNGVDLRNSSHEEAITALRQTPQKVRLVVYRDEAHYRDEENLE
IL16_3, Q14005, sequence (Q14005 1107-1207): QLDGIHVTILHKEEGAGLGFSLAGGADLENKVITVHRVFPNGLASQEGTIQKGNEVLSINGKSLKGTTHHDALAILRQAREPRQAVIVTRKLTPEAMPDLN
MAGI1_1, Q96QZ7, sequence (Q96QZ7 1-106): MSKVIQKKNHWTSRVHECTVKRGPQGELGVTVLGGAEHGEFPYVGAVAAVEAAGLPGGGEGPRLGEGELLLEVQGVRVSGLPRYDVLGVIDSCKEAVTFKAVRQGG
IL16_4, Q14005, sequence (Q14005 1229-1329): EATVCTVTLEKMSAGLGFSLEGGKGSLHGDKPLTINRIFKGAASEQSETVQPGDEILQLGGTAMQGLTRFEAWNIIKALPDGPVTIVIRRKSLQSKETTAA
DLG4_2, P78352, sequence (P78352 155-259): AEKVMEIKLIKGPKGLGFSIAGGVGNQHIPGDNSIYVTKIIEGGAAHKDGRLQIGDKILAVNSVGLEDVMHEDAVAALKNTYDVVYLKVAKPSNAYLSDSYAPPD
DLG4_3, P78352, sequence (P78352 306-403): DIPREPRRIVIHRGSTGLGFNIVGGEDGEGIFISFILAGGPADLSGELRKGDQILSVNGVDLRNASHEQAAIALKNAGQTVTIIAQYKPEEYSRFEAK
MAGI2_2, Q86UL8, sequence (Q86UL8 410-522): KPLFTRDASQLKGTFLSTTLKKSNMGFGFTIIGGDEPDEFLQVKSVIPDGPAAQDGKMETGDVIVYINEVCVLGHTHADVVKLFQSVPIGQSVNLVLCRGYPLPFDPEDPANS
DLG4_1, P78352, sequence (P78352 62-152): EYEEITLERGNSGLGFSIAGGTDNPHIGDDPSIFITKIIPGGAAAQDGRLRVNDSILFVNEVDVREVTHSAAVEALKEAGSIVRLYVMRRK
LDB3, O75112, sequence (O75112 1-94): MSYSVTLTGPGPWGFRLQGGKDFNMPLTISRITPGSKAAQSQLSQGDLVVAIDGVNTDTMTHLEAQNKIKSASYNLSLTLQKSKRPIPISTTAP
DLG1_2, Q12959, sequence (Q12959 314-412): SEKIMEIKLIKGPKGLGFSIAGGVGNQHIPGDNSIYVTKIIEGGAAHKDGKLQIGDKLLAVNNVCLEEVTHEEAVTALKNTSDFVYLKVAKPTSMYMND
GRASP, Q7Z6J2, sequence (Q7Z6J2 96-193): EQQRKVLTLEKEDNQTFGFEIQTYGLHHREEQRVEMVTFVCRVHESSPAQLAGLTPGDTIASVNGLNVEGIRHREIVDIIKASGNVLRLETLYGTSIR
Inadl_4, Q8NI35, sequence (Q8NI35 547-651): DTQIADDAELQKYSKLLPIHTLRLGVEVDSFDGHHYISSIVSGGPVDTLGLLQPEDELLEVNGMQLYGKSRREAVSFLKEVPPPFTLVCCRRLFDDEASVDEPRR
MAGI2_3, Q86UL8, sequence (Q86UL8 600-682): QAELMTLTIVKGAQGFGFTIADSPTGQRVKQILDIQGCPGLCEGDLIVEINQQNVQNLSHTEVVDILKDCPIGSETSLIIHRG
HTRA1, Q92743, sequence (Q92743 360-477): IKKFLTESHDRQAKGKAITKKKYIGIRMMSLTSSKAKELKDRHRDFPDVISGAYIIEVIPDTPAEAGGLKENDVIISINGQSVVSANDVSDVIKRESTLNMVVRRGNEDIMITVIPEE
LAP2, Q96RT1, sequence (Q96RT1 other isoform, or with tags, fused parts or gaps): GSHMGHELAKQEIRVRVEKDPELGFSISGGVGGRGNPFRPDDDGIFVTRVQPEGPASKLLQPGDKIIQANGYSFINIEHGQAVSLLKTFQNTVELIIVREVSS
GRIP2_7, Q9C0E4, sequence (Q9C0E4 934-1023): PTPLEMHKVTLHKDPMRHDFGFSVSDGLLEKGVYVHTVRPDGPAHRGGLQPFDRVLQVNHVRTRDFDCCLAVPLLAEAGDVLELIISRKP
PDLIM1, O00151, sequence (O00151 1-87): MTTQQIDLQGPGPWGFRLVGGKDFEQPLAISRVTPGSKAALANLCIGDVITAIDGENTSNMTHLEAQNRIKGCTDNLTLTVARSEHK
TJP1_2, Q07157, sequence (Q07157 181-274): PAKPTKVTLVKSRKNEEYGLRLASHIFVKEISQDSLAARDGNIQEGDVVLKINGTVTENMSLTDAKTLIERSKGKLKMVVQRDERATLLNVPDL

B1: AMOTL1, Q8IY63 (peptide)
chain: PDGEMMEVLI
[1]; [34]
  pKd: below the threshold
[2]; [34]
  pKd: below the threshold
[3]; [34]
  pKd: 3.58
[4]; [34]
  pKd: below the threshold
[5]; [34]
  pKd: below the threshold
[6]; [34]
  pKd: below the threshold
[7]; [34]
  pKd: below the threshold
[8]; [34]
  pKd: 5.03
[9]; [34]
  pKd: below the threshold
[10]; [34]
  pKd: below the threshold
[11]; [34]
  pKd: below the threshold
[12]; [34]
  pKd: below the threshold
[13]; [34]
  pKd: below the threshold
[14]; [34]
  pKd: 5.05
[15]; [34]
  pKd: below the threshold
[16]; [34]
  pKd: below the threshold
[17]; [34]
  pKd: below the threshold
[18]; [34]
  pKd: below the threshold
[19]; [34]
  pKd: below the threshold
[20]; [34]
  pKd: below the threshold
[21]; [34]
  pKd: below the threshold
[22]; [34]
  pKd: below the threshold
[23]; [34]
  pKd: 3.53
[24]; [34]
  pKd: below the threshold
[25]; [34]
  pKd: 3.75
[26]; [34]
  pKd: below the threshold
[27]; [34]
  pKd: below the threshold
[28]; [34]
  pKd: below the threshold
[29]; [34]
  pKd: 3.76
[30]; [34]
  pKd: below the threshold
[31]; [34]
  pKd: below the threshold
[32]; [34]
  pKd: below the threshold
[33]; [34]
  pKd: below the threshold

B2: TUBB4B, P68371 (peptide)
chain: FEEEAEEEVA
[1]; [34]
  pKd: below the threshold
[2]; [34]
  pKd: below the threshold
[3]; [34]
  pKd: below the threshold
[4]; [34]
  pKd: below the threshold
[5]; [34]
  pKd: below the threshold
[6]; [34]
  pKd: below the threshold
[7]; [34]
  pKd: below the threshold
[8]; [34]
  pKd: below the threshold
[9]; [34]
  pKd: below the threshold
[10]; [34]
  pKd: below the threshold
[11]; [34]
  pKd: below the threshold
[12]; [34]
  pKd: below the threshold
[13]; [34]
  pKd: 3.76
[14]; [34]
  pKd: 3.58
[15]; [34]
  pKd: below the threshold
[16]; [34]
  pKd: below the threshold
[17]; [34]
  pKd: below the threshold
[18]; [34]
  pKd: below the threshold
[19]; [34]
  pKd: below the threshold
[20]; [34]
  pKd: below the threshold
[21]; [34]
  pKd: below the threshold
[22]; [34]
  pKd: below the threshold
[23]; [34]
  pKd: below the threshold
[24]; [34]
  pKd: below the threshold
[25]; [34]
  pKd: below the threshold
[26]; [34]
  pKd: below the threshold
[27]; [34]
  pKd: below the threshold
[28]; [34]
  pKd: below the threshold
[29]; [34]
  pKd: below the threshold
[30]; [34]
  pKd: below the threshold
[31]; [34]
  pKd: below the threshold
[32]; [34]
  pKd: below the threshold
[33]; [34]
  pKd: below the threshold

B3: RPS6KA1_-3P, Q15418 (peptide)
chain: RRVRKLPSTTL
[1]; [35]
  pKd: below the threshold
[2]; [35]
  pKd: below the threshold
[3]; [35]
  pKd: below the threshold
[4]; [35]
  pKd: below the threshold
[5]; [35]
  pKd: below the threshold
[6]; [35]
  pKd: below the threshold
[7]; [35]
  pKd: below the threshold
[8]; [35]
  pKd: below the threshold
[9]; [35]
  pKd: below the threshold
[10]; [35]
  pKd: below the threshold
[11]; [35]
  pKd: 3.73
[12]; [35]
  pKd: below the threshold
[13]; [35]
  pKd: below the threshold
[14]; [35]
  pKd: below the threshold
[15]; [35]
  pKd: below the threshold
[16]; [35]
  pKd: 3.57
[17]; [35]
  pKd: below the threshold
[18]; [35]
  pKd: below the threshold
[19]; [35]
  pKd: below the threshold
[20]; [35]
  pKd: below the threshold
[21]; [35]
  pKd: below the threshold
[22]; [35]
  pKd: 3.61
[23]; [35]
  pKd: below the threshold
[24]; [35]
  pKd: below the threshold
[25]; [35]
  pKd: 3.72
[26]; [35]
  pKd: below the threshold
[27]; [35]
  pKd: below the threshold
[28]; [35]
  pKd: below the threshold
[29]; [35]
  pKd: below the threshold
[30]; [35]
  pKd: below the threshold
[31]; [35]
  pKd: below the threshold
[32]; [35]
  pKd: below the threshold
[33]; [35]
  pKd: below the threshold

B4: PTEN_Ac, P60484 (peptide)
chain: DEDQHTQITKV
[1]; [36]
  pKd: below the threshold
[2]; [36]
  pKd: below the threshold
[3]; [36]
  pKd: below the threshold
[4]; [36]
  pKd: below the threshold
[5]; [36]
  pKd: below the threshold
[6]; [36]
  pKd: 4.19
[7]; [36]
  pKd: below the threshold
[8]; [36]
  pKd: 5.03
[9]; [36]
  pKd: 3.93
[10]; [36]
  pKd: below the threshold
[11]; [36]
  pKd: below the threshold
[12]; [36]
  pKd: below the threshold
[13]; [36]
  pKd: below the threshold
[14]; [36]
  pKd: 5.03
[15]; [36]
  pKd: below the threshold
[16]; [36]
  pKd: 3.77
[17]; [36]
  pKd: 3.98
[18]; [36]
  pKd: 3.61
[19]; [36]
  pKd: below the threshold
[20]; [36]
  pKd: below the threshold
[21]; [36]
  pKd: 4.85
[22]; [36]
  pKd: 4.67
[23]; [36]
  pKd: below the threshold
[24]; [36]
  pKd: below the threshold
[25]; [36]
  pKd: 3.68
[26]; [36]
  pKd: 4.88
[27]; [36]
  pKd: below the threshold
[28]; [36]
  pKd: 5.32
[29]; [36]
  pKd: 4.04
[30]; [36]
  pKd: 4.58
[31]; [36]
  pKd: below the threshold
[32]; [36]
  pKd: 4.82
[33]; [36]
  pKd: below the threshold
